Reference: the supplement of paper PMC9170038

System: MS2 coat protein
Assay: apparent KD of MS2 coat protein; designed switch direction (-1 OFF switch, 1 ON switch): 1; higher = weaker reporter binding
Procedure, shortened: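 The buffer was Tris-HCl pH 7.5 with KCl, MgCl2, BSA, DTT, tRNA and Tween-20. In it, SNAP-549-labelled MS2 coat protein was titrated in doubling steps from 0.7 or 1.5 nM to 3 µM over chip-bound RNA switches transcribed by stalled E. coli RNA polymerase on Illumina chips. Apparent KD is the per-design median over clusters of curve fits to normalised fluorescence.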

[1] = input ligand: microRNA oligo, concentration not stated
[2] = Eterna round: R95, input ligand: FMN 200 uM
[3] = Eterna round: R95, input ligand: microRNA oligo, concentration not stated
[4] = Eterna round: R95, input ligand: none

| Sequence | apparent KD of MS2 coat protein (input ligand: FMN 200 uM) | apparent KD of MS2 coat protein [1] | apparent KD of MS2 coat protein (input ligand: none) | apparent KD of MS2 coat protein [2] | apparent KD of MS2 coat protein [3] | apparent KD of MS2 coat protein [4] |
| --- | --- | --- | --- | --- | --- | --- |
| AGAUGUUAAUUAGGAUAUGGACACAUGAGGAUCACCCAUGUAACGAAGAUACGAUGUGGUCAAGUCUAGAAGGGAUAGCUAACA [SameState NG2 #75] (Eterna round: R96, puzzle: Same State NG 2) | 39.9 nM | 27.3 nM | 39 nM | – | – | – |
| AGAAAACAUGAGGAUCACCCAUGUAGAAAUAUGGGAGGAUAUACAAAGACGAAAGUCAAGGUAGAAGGCCUAAAGA [Mat - Same State 1 - Meechl mod - D124] (Eterna round: R96, puzzle: Same State 1) | 19.6 nM | 70.4 nM | 98.7 nM | – | – | – |
| GCGAGCGUACUUGCAGACAUGAGGAUCACCCAUGUAACUGGACAGGAUAUGGUACCGUUUCGGUACCAGAAGGGUUUAUAUGUC [JL SSNG3 3.52] (Eterna round: R96, puzzle: Same State NG 3) | 40.4 nM | 25.7 nM | 57.4 nM | – | – | – |
| GGCGAACAGGCUAACAUGAGGAUCACCCAUGUGGACUUCGUGUAGGAUAUCGGGAAGGAGGAAACCGAGAAGGGCAAAGAAGCC [AK SSNG3-V2-49] (Eterna round: R96, puzzle: Same State NG 3) | 195 nM | 88.2 nM | 93.7 nM | – | – | – |
| AACAAUCUAUCUGAGGAUAUCAUGAGAAUAACAUGAGGAUCACCCAUGUGCAGGAAAACUGCAUAUGAGAAGGCAGAUAGAUUGG [Mat - Same State 2 - Mod - D21] (puzzle: Same State 2) | – | – | – | 78.6 nM | 546 nM | 2730 nM |
| GGCACAAAAGCACAGGAUAUGCAAAAGAACACAUGAGGAUCACCCAUGUAGCCAAAUAACGGGCAGCAGAAGGGUGGGACUGCCA [Ceridi] (puzzle: Same State 2) | – | – | – | 78.2 nM | 693 nM | 485 nM |
| GGUAAACAUGAGGAUCACCCAUGUAAUAAUAUGGGAGGAUAUGGGAAUUAAUUAAUUAAACCAGAAGGCCUAAUGU [Mat - Same State 1 - D87] (puzzle: Same State 1) | – | – | – | 53.1 nM | 536 nM | 519 nM |
| GGAGCCGGCCUAGGAUAUUUCAUAAAAUAACAUGAGGAUCACCCAUGUAGGCCAGAAGGCCUUGGGAAGAAGGAGGUCGGCUCC [Loop Effect - U28] (Eterna round: R96, puzzle: Same State NG 2) | 13.4 nM | 23.1 nM | 44.4 nM | – | – | – |
| AAUUUAAUACAUGAGGAUCACCCAUGUAAAUUAAUUAAGAUCAAGGAUAUCAGCUCGUUUAGAGCUGAGAAGGUGAUCACAUGU [SSNG3/19-A3] (Eterna round: R96, puzzle: Same State NG 3) | – | 163 nM | – | – | – | – |
| AAGAGAGAAAUACAGGAUAUGAGGAAAGGAACAUGAGGAUCACCCAUGUAAGAGAAAGGGAAAGAUCAGAAGGGUAGAGAAGAGA [JR_SS2_Sub001] (puzzle: Same State 2) | – | – | – | 76.6 nM | 66.1 nM | 264 nM |
| UUGAAGAAUUAAGGAUAUUGAAUACAUAUGUUUAACAUGAGGAUCACCCAUGUGGGUUGCGGUGUCGAGAAGGUAAAAUACUAG [Mat - same State NG 2 - JL mod - D97] (Eterna round: R96, puzzle: Same State NG 2) | 236 nM | 278 nM | 270 nM | – | – | – |
| GCCGUAUAAACAUGAGGAUCACCCAUGUGCGCGAGAGCGGAUGAGGAUAUCGAUGGGUUUCCCGUCGAGAAGGCGUGGGUCGGC [JL SSNG3 3.97] (Eterna round: R96, puzzle: Same State NG 3) | 31 nM | 41.1 nM | 55.2 nM | – | – | – |
| GUAGAAGAACUAGAGGAUAUCCGAGUGGUAACAUGAGGAUCACCCAUGUGAUGAAAGGAACAUGAGGAGAAGGCUAGAAUGAAUG [Mat - Same State 2 - Mod of JL - D83] (puzzle: Same State 2) | – | – | – | 24.7 nM | 45.7 nM | 79.2 nM |
| CAAGAAAACGCAGGAUAUACCCGGACAACCCGGGUAGAAGGGUGACACAUGAGGAUCACCCAUGUACAUGGCAAUAACCAUGGA [Sobiais] (Eterna round: R96, puzzle: Same State NG 1) | 15.2 nM | 10.7 nM | 35.4 nM | – | – | – |
| UGUUGGAAGUGAGGAUAUGGGAAAGGAAGUGUACCAGAAGGCACAUCUAGCCGGAACAUGAGGAUCACCCAUGUACCACACUAC [PowerStrip SSNG 1.15] (Eterna round: R96, puzzle: Same State NG 1) | 128 nM | 24.6 nM | 30.7 nM | – | – | – |
| AGACAUGAGGAUCACCCAUGUAUACACUAUAUCAGUGUAACAUAGGAUAUCCACCGCCAUGCUGUGGAGAAGGAUGAAACGGGC [Raerlaan] (Eterna round: R96, puzzle: Same State NG 3) | 211 nM | 65.9 nM | 108 nM | – | – | – |
